Measurements from the nanobody polyreactivity screen of Harvey et al. (2022).

experiment: yeast display, Sf9 membrane polyspecificity reagent, FACS + sequencing; frameworks hold sequencing errors
Outline: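 Synthetic nanobody libraries on Saccharomyces cerevisiae BJ5465 were galactose-induced for 36–48 hours, stained 1 hour at 4 °C with 10% biotinylated, detergent-solubilized Sf9 membrane reagent and enriched on streptavidin microbeads. FACS then separated cells into low and high (top ~1%) gates by anti-HA (expression) and streptavidin (reagent binding) fluorescence. Genes were colony-PCR amplified, MiSeq 2 × 250 sequenced and CDR-length filtered. A clone's polyreactivity label is that of its gate of origin.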

Sequence | polyreactivity (PSR sort gate)
QVQLVESGGGLVQAGGSLRLSCDASGRIFNYYAMGWYRQAPGKERELVAAITWNGGNTYYADSVKGRFTISRDNAKNTVYLQMNSLKPEDTAVYYCNAYPWYPGDYWGQGTQVTVSS | high polyreactivity
QVQLVESGGGLVQAGGSLRLSCDASGRIFYNYAMGWYRQEPGKERELVAAISSSGGRTYYADSVKGRFTISRDKAKNTVYLQMNSLKPEDTAVYYCAADFHDASRPYGSWGQGTQVTVSS | low polyreactivity
QVQLVESGGGLVQAGGSLRLSCDASGRSFYPYSMGWYRQAPGKERELVAAIDWSDGSTYYADSVKGRFTISRDNAKNTFYLQMNSLKPEDTAVYYCSAEDYNYWSYDYWGQGTQVTVSS | low polyreactivity
QVQLVESGGGLVQAGGSLRLSCDASGRTFVVNAMGWYRQAPGKERELVAAITRRGGITYYADSVKGRFTISRDNAKNTVYLQMNSLKPEDTAVYYCAADRSYYPDTRTTYGYNYWGQGTQVTVSS | low polyreactivity
QVQLVESGGGLVQAGGSLRLSCDASGRTFYFYVMGWYRQAPGKERELVARISWSGGSTYYADSVKGRFTISRDNAKNTVYLQMNSLKPEDTAVYYCARQYKYPSSGEYDSWGQGTQVTVSS | low polyreactivity
QVQLVESGGGLVQAGGSLRLSCDASGSIFAKNAMGWYRQAPGKERELVAAIDLNGGSTYYADSVKGRFTISRDTAKNTVYLQMNILKPEDTAVYYCDVYYGHSCVIRSSPEYDSWGQGTQVTVSS | low polyreactivity
QVQLVESGGGLVQAGGSLRLSCDASGSIFGRNAMGWYRQAPGKERELVAAISWRGGRTYYADSVKGRFTISRDNAKNTVYLQMNSLKPEDTAVYYCAATSGRPYEYGYWGQGTQVTVSS | high polyreactivity
QVQLVESGGGLVQAGGSLRLSCDASGSIFLVYAMGWYRQAPGKERELVAAITSGGSTNYADSVKGRFTISRDNAKNTVYFQMNSLKPEDTAVYNCAAERGDTAYRKYDYWGQGTQVTVSS | low polyreactivity
QVQLVESGGGLVQAGGSLRLSCDASGSIFMYNAMGWYRQAPGKERELVAAISSSSDRTYYADSVKGRFTISRDNAKKTVYLQMNSLKPEDTAVYYCNVVYIGWRKYEYWGQGTQVTVSS | high polyreactivity
QVQLVESGGGLVQAGGSLRLSCDASGSIFRAYAMRWYRQAPGKERELVAAISSSSGRTYYADSVKGRFTISRDNAKTTVYLQLNSLKPEDTAVYYCAVTASTLVTSATYDYWGQGTQVTLSS | low polyreactivity
QVQLVESGGGLVQAGGSLRLSCDASGSIFRLYAMGWYRQAPGKERELVARITRRCGDTYADSVKGRFTISRDNAKNTVYLQMNSLKREDTAVYYCAADGYHRYPGSSGYGYWGQGTQVTVSS | high polyreactivity
QVQLVESGGGLVQAGGSLRLSCDASGSIFYGYTMGWYRQDPGKERELVAAIRKSGGSTNYADSVKGRFTISRDNAKNTVYLQMNSLKPEDTAVYYCAASYYRGRGYYWGQGTQVTVSS | high polyreactivity
QVQLVESGGGLVQAGGSLRLSCDASGSIFYSKAMGWYRQAHGKERELVAAITVGGGRTYYADSVKGRFTISRDNAKNTVYLQMNSLNPEDTAVYYCAADSHASTYDYWGQGTQVTVSS | low polyreactivity
QVQLVESGGGLVQAGGSLRLSCDASGSIVRYNAMGWYRQAPGKERELVADISTSGGSTYYADSVKGRFTISRDNANNTVYVQMNSLKPEDTAVYYCAKPWYSSGFDYWGQGTQVTVSS | high polyreactivity
QVQLVESGGGLVQAGGSLRLSCDASGSIYRLNAMGWYRQAPGKEMELVAAITWSDSSTYYADSVKGRFTISRDNAKYTVYLQMNSLKPEDTAVYYCAADPQSYKYDYWGQGTQVTVSS | low polyreactivity
QVQLVESGGGLVQAGGSLRLSCDASGSTFDVNTMGWYRQAPGKERELVAAIRLRGGSTYYADSVKGRFTISRDNAKNTVYLLMISLKPEDTAVYYCAADYTLIYDYCGQGTQVTVSS | low polyreactivity
QVQLVESGGGLVQAGGSLRLSCDASGSTFFANAMGWYRQAPGKERELVAAITIGNTNYADSVKGRFTISRDNAKYTVYLQMNSLKPEDTAVYYCNASHVSHYRARDYWGQGTQVTVSS | low polyreactivity
QVQLVESGGGLVQAGGSLRLSCDASGSTFFTYAMGWYRQSPGKERELVAAITRGGSTYYADSVKGRFTISRDNAKHTVYLQMNSLKPEDTAVYYCNVDPFTRQNHGNYWGQGTQVTVSS | high polyreactivity
QVQLVESGGGLVQAGGSLRLSCDASGSTFGYYTMVWYRPSPGKERELVAAISSSGGSTYYADSVKGRFTISRDNAKNTVYLQMYSLKPEDTAVYYCNAEYGFYRAGSRGEYWGQGTQVTVSS | low polyreactivity
QVQLVESGGGLVQAGGSLRLSCDASGSTFRWYTMGWYRPAPGKEREVVATISRSGGSTYNADSVKGRFTISRDNAKNTVYLQMNSLKPEDTAVYYCNKLGVSTHSYKYYYWGQGTQVTVSS | high polyreactivity
QVQLVESGGGLVQAGGSLRLSCDASGSTFSYYTMGWYRQAPGKERELVAAITGSGGRTYYADSVKGRFTISRDNAKNTVYLQMNSLKPEDSAVYYCAARLYTAADHYNYWGQGTQVTVSS | high polyreactivity
QVQLVESGGGLVQAGGSLRLSCDASGSTFYPYVMGWYRQAPGKERELVARITWSGGSTYYADSVKGRFTISRDNAKNTVYLQMNSLKPEDTAVYYCAALRYVNLLAQAYEYWGQGTQVTVSS | high polyreactivity

Sequence | polyreactivity (PSR sort gate)
QVQLVESGGGLVQAGGSLRLSCDASGSTIDWYAMGWYRQAPGKERELVAGITISAGRTYYADSVKGRFTISRDNAKNTVYLQMNSLKPEDTAVYYCAADVYYYLDMDHWGQGTQVTVSS | low polyreactivity
QVQLVESGGGLVQAGGSLRLSCDASGSTIPTYAMGWYRQAPGKERELVASISVTTGSTYYADSVKGRFTISRDNAKNTVYLNMKSLKPEDTAVYFCAKRTYSRKFRGSYNYWGQGTEVTVSS | high polyreactivity
QVQLVESGGGLVQAGGSLRLSCGASGFIFKSYAMGWYRQATGKERELVAAFSRSGSSTYYADSVMGRFTISRDNAKNTVYLQMNSLKPEDTAVYYCAKKGYRFIHFGYDYWGQGTQVTVSS | high polyreactivity
QVQLVESGGGLVQAGGSLRLSCGASGFIFLKNAMGWYRQAPGKARELVAAITRSGDITYYADSVKGRFTISRDNAKNTVYLKMNSLKPEDTAVYYCATTREFPSYDSWGQGTQVTVSS | low polyreactivity
QVQLVESGGGLVQAGGSLRLSCGASGFTFPYYAMGWYIQAPGKERELVAAITSSGGSTYYADSVKGRFTISRDNAKNTVYLQMNSLNPEDTAVYYCAVDAYYYKWYDYWGQGTQVTVSS | high polyreactivity
QVQLVESGGGLVQAGGSLRLSCGASGFTFYSYAMGWYRPARGKARELVATITKSGGNTYYADSVKGRFTISRDNAKNTVYLQMTSLKPVDTAVYYCAAATKVGRYKRKTVSYYYWCQGTQVTVSS | high polyreactivity
QVQLVESGGGLVQAGGSLRLSCGASGLTFAYYAMRWYRQAPGKERELVAAISSSGRSTYYADSVKGRFTISRDNAKNTVYLQMNSLTEEDTAVSYCDKVGPWYYWERDYWGQCTQVTVSS | high polyreactivity
QVQLVESGGGLVQAGGSLRLSCGASGNTINVNTMGWYRQGPGKERELVAAINSGDNTNYADSVKGRFTISRDNAKNTVYLQMNSLNPVDTAVYSCAAQDYARGVVPGRRAIGYWGQCTQVTVSS | high polyreactivity
QVQLVESGGGLVQAGGSLRLSCGASGRIFRGYAMGWYRQGPGKERELVAAISRRGGSTYYADSVKGRFTISRDNAKNTVYLQMNSLKPVDTAVYYCNADGVHYVAYAGGYWGQGTQVTVSS | high polyreactivity
QVQLVESGGGLVQAGGSLRLSCGASGRSSYVYAMGWYRQAPGKERELVAAITSSGGSTYYADSVKGRFTISRDNAKNTVYLQMNSLKPEDTAVYYCAAETYPVWGVAFYYWGQGTQVTVSS | high polyreactivity
QVQLVESGGGLVQAGGSLRLSCGASGRTFKLYAMGWYRQAPAKERELVATIRRSGTRTYADSVKGRFTISRDNAKNTVYLQINSLKQEDTAVYYCAATTYAYVYHRYDYWGQGTQVTVSS | high polyreactivity
QVQLVESGGGLVQAGGSLRLSCGASGSIFPDYAMGWYRQAPGKERELVAAITWSGGSTYYADSVKGRFTISRDNAKNTVNLQMNSLKPEDTAVYYCAAQLDPEWRGYFDQYGYDYWGQGTQVTVST | low polyreactivity
QVQLVESGGGLVQAGGSLRLSCGASGSIRANMGSYRQAPGKETELVAVITTSGASTSYAVSVKGRFTISRDNAKNTVYLQMNRLKPEDTAVYYCAADIYYYPHTYYRDGYYYWGQGSQVTVSS | low polyreactivity
QVQLVESGGGLVQAGGSLRLSCGASGSTFRLYALGWYRQAPGNEWAFVAAISFRGGSTYYADSVKGRFTISRDNAQNTVYLQMNSLKPEDTAVYYCAAEVGTGGVRTPRYEYWGQGTQVTVSS | high polyreactivity
QVQLVESGGGLVQAGGSLRLSCGASGSTSKYYAMGWYRQAPGKERELVAAITWSDVSTYFADSVKGRFTISRDNAKHNVYLQMNSLKPEDTAVYYCNAGYDYWGQGTQVTVSS | low polyreactivity
QVQLVESGGGLVQAGGSLRLSCGASGTIFDYYVMGWYRQAPVKERELVAAISWSGASTYYADSVKGRFTISRDNAKNTVYLQMNSLKPDDTAVYYCAADYGVNTLIDYDYWGQGTQVTVSS | low polyreactivity
QVQLVESGGGLVQAGGSLRLSCPASGFNFLYYAMGWYRQAPGTEREFVAAIRSSGTTTSYADSVKGRFTISRDNAKNTVYLEMISLKPVDTAVYYCAAGYFGPQQYYYWGQGSQVTVSS | high polyreactivity
QVQLVESGGGLVQAGGSLRLSCPASGFNFRYYAIGWYRQAPGKERQLVAAISRIGGSTNYADSVKGRFTISRDNAKNTVYLQLNSLKPEDTAVYYCAVAEGYSPAYLRDYWGQGSQVTVSS | high polyreactivity
QVQLVESGGGLVQAGGSLRLSCPASGFTFKSYAMGWYRQAPGKERELVAAISRGGSTYYADSVKGRFTISRDNAKNTVYLQMNSLKPEDTAVYYCNKTRYSRSYYEYDYWGQGTQVTVSS | low polyreactivity
QVQLVESGGGLVQAGGSLRLSCPASGFTFTIYAMGWYRQAPGKERELLATISGRAGRTYYADSVKGRFTISRDNAKNTVYLQMNSLKPEDTAVYDCAARVWYQGYKSMGYWGQGTQVTVSS | high polyreactivity
QVQLVESGGGLVQAGGSLRLSCPASGFTFYGYAMGWYRQAPGKERELVAAIRYSGGSTYYADSVKGRFTISRDNAKNTVYLQMNSLKPEDTAVYYCNKRLIYYRGTYYSRRFDYWGQGTQVTVSS | high polyreactivity
